This series deals with the molecule itself. As to the kind of experiment: SEC; […] (20 mM HEPES pH 7, 100 mM NaCl, 10% glycerol); […]. (In general: Size exclusion chromatography separates by hydrodynamic size, large species first.)

B1: PE domain of LipY (domain or fragment)
chain: MVSYVVALPEVMSAAATDVASIGSVVATASQGVAGATTTVLAAAEDEVSAAIAALFSGHGQDYQALSAQLAVFHERFVQALTGAAKGYAAAELANASLLQSEFASGIGNGFATIHQEIQRAPTALAAGFTQVPPFAAAQAGIFTGTPSG
notes: LipY, Mycobacterium tuberculosis, residues 1-149 (PE domain with the linker up to the cleavage site); not shown: His tag, C-terminal, kept
With B1, the binding result is given as “binds”.

B2: LipY (enzyme)
chain: MVSYVVALPEVMSAAATDVASIGSVVATASQGVAGATTTVLAAAEDEVSAAIAALFSGHGQDYQALSAQLAVFHERFVQALTGAAKGYAAAELANASLLQSEFASGIGNGFATIHQEIQRAPTALAAGFTQVPPFAAAQAGIFTGTPSGAAGFDIASLWPVKPLLSLSALETHFAIPNNPLLALIASDIPPLSWFLGNSPPPLLNSLLGQTVQYTTYDGMSVVQITPAHPTGEYVVAIHGGAFILPPSIFHWLNYSVTAYQTGATVQVPIYPLVQEGGTAGTVVPAMAGLISTQIAQHGVSNVSVVGDSAGGNLALAAAQYMVSQGNPVPSSMVLLSPWLDVGTWQISQAWAGNLAVNDPLVSPLYGSLNGLPPTYVYSGSLDPLAQQAVVLEHTAVVQGAPFSFVLAPWQIHDWILLTPWGLLSWPQINQQLGIAA
notes: LipY, PE protein with a C-terminal triglyceride lipase domain, Mycobacterium tuberculosis; 45 kDa; full length (LipYΔPE ends at residue 437); also called full length LipY; not shown: His tag, C-terminal, kept
As to B2, the binding result is “binds”.
